Measured values as given in patent US20210139548A1 (published 2021).
Blank lines part the entries; values can stand above or below the binder they belong to. *1 amine or outer side, *2 acyl side, *3 side chain or, on linkers, in order; H or OH if unused. Side-chain parts run from the residue outwards. The star is where a group is joined. C18 diacid = O=C(O)CCCCCCCCCCCCCCCCC(=O)*; γGlu = O=C(O)[C@H](CCC(=O)[*:2])N[*:1]; Isovaleryl = CC(C)CC(=O)*; AEEA = NCCOCCOCC(=O)O

Biological target: T1, human neuropeptide Y2 receptor (human, UniProt P49146 1-381)
T1 construct: whole, on cells; also called hNPY2 receptor; hNPY2-R
T1 sequence (looked up): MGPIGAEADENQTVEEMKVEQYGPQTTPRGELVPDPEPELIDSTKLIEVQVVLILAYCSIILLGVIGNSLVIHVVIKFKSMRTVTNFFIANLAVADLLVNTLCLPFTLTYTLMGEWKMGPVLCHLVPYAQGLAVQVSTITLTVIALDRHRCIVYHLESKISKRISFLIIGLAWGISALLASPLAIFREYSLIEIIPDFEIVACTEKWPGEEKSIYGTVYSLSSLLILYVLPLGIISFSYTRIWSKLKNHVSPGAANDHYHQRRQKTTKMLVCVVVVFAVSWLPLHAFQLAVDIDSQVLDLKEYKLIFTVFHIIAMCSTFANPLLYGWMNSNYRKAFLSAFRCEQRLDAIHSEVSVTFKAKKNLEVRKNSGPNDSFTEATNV
Assay: radioligand competition (125I-PYY(1-36)), hNPY2R membranes
Outline: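 Commercial human Y2 receptor membranes (0.5 μg protein/well) were incubated with peptide for 2 h at room temperature in 50 mM HEPES, 5 mM MgCl₂, 1 mM CaCl₂, pH 7.4, with 0.2% ovalbumin. Bound radioligand was separated on PEI-soaked GF/C filters and counted by scintillation, and IC₅₀ came from nonlinear sigmoidal regression.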

Ki: 5.22 nM
B1: Compound 71 (peptide)
peptide: Isovaleryl-APEK([AEEA-AEEA-γGlu-C18 diacid])PEEEASPSELQRYYVSLRHYYNWLTRQRY-NH2
SMILES: CC(C)CC(=O)N[C@@H](C)C(=O)N1CCC[C@H]1C(=O)N[C@@H](CCC(=O)O)C(=O)N[C@@H](CCCCNC(=O)COCCOCCNC(=O)COCCOCCNC(=O)CC[C@H](NC(=O)CCCCCCCCCCCCCCCCC(=O)O)C(=O)O)C(=O)N1CCC[C@H]1C(=O)N[C@@H](CCC(=O)O)C(=O)N[C@@H](CCC(=O)O)C(=O)N[C@@H](CCC(=O)O)C(=O)N[C@@H](C)C(=O)N[C@@H](CO)C(=O)N1CCC[C@H]1C(=O)N[C@@H](CO)C(=O)N[C@@H](CCC(=O)O)C(=O)N[C@@H](CC(C)C)C(=O)N[C@@H](CCC(N)=O)C(=O)N[C@@H](CCCNC(=N)N)C(=O)N[C@@H](Cc1ccc(O)cc1)C(=O)N[C@@H](Cc1ccc(O)cc1)C(=O)N[C@H](C(=O)N[C@@H](CO)C(=O)N[C@@H](CC(C)C)C(=O)N[C@@H](CCCNC(=N)N)C(=O)N[C@@H](Cc1c[nH]cn1)C(=O)N[C@@H](Cc1ccc(O)cc1)C(=O)N[C@@H](Cc1ccc(O)cc1)C(=O)N[C@@H](CC(N)=O)C(=O)N[C@@H](Cc1c[nH]c2ccccc12)C(=O)N[C@@H](CC(C)C)C(=O)N[C@H](C(=O)N[C@@H](CCCNC(=N)N)C(=O)N[C@@H](CCC(N)=O)C(=O)N[C@@H](CCCNC(=N)N)C(=O)N[C@@H](Cc1ccc(O)cc1)C(N)=O)[C@@H](C)O)C(C)C

Ki: 6.17 nM
B2: Compound 77 (peptide)
peptide: Isovaleryl-APEK([AEEA-AEEA-γGlu-C18 diacid])PEEDASEEELQRYYVELRHYYNWLTRQRY-NH2
SMILES: CC(C)CC(=O)N[C@@H](C)C(=O)N1CCC[C@H]1C(=O)N[C@@H](CCC(=O)O)C(=O)N[C@@H](CCCCNC(=O)COCCOCCNC(=O)COCCOCCNC(=O)CC[C@H](NC(=O)CCCCCCCCCCCCCCCCC(=O)O)C(=O)O)C(=O)N1CCC[C@H]1C(=O)N[C@@H](CCC(=O)O)C(=O)N[C@@H](CCC(=O)O)C(=O)N[C@@H](CC(=O)O)C(=O)N[C@@H](C)C(=O)N[C@@H](CO)C(=O)N[C@@H](CCC(=O)O)C(=O)N[C@@H](CCC(=O)O)C(=O)N[C@@H](CCC(=O)O)C(=O)N[C@@H](CC(C)C)C(=O)N[C@@H](CCC(N)=O)C(=O)N[C@@H](CCCNC(=N)N)C(=O)N[C@@H](Cc1ccc(O)cc1)C(=O)N[C@@H](Cc1ccc(O)cc1)C(=O)N[C@H](C(=O)N[C@@H](CCC(=O)O)C(=O)N[C@@H](CC(C)C)C(=O)N[C@@H](CCCNC(=N)N)C(=O)N[C@@H](Cc1c[nH]cn1)C(=O)N[C@@H](Cc1ccc(O)cc1)C(=O)N[C@@H](Cc1ccc(O)cc1)C(=O)N[C@@H](CC(N)=O)C(=O)N[C@@H](Cc1c[nH]c2ccccc12)C(=O)N[C@@H](CC(C)C)C(=O)N[C@H](C(=O)N[C@@H](CCCNC(=N)N)C(=O)N[C@@H](CCC(N)=O)C(=O)N[C@@H](CCCNC(=N)N)C(=O)N[C@@H](Cc1ccc(O)cc1)C(N)=O)[C@@H](C)O)C(C)C
